This note sets out measurements from paper PMC10096250, “Combined action of albumin and heparin regulates lipoprotein lipase oligomerization, stability, and ligand interactions” (PLOS ONE, 2023).

To fix the notation:
B3: Bovine lipoprotein lipase (enzyme, UniProt P11151 29-478, looked up)
chain: DRITGGKDFRDIESKFALRTPEDTAEDTCHLIPGVTESVANCHFNHSSKTFVVIHGWTVTGMYESWVPKLVAALYKREPDSNVIVVDWLSRAQQHYPVSAGYTKLVGQDVAKFMNWMADEFNYPLGNVHLLGYSLGAHAAGIAGSLTNKKVNRITGLDPAGPNFEYAEAPSRLSPDDADFVDVLHTFTRGSPGRSIGIQKPVGHVDIYPNGGTFQPGCNIGEALRVIAERGLGDVDQLVKCSHERSVHLFIDSLLNEENPSKAYRCNSKEAFEKGLCLSCRKNRCNNMGYEINKVRAKRSSKMYLKTRSQMPYKVFHYQVKIHFSGTESNTYTNQAFEISLYGTVAESENIPFTLPEVSTNKTYSFLLYTEVDIGELLMLKLKWISDSYFSWSNWWSSPGFDIGKIRVKAGETQKKVIFCSREKMSYLQKGKSPVIFVKCHDKSLNRKSG
notes: lipoprotein lipase (LPL), bovine, purified from bovine milk; In the RICS experiments 10 nM of the LPL carried ATTO610 (NHS ester labelling) and 190 nM was unlabelled; it says that most experiments were done with bovine LPL; also called bLPL; bovine LPL; source: purified from bovine milk

The target in assay [1] is B3. The assay is described as follows: cell-based or functional assay.
In the next assay the target is T1, Human serum albumin (human, UniProt P02768 25-609).
T1 construct: serum albumin, human; also called HSA
T1 sequence (P02768 25-609): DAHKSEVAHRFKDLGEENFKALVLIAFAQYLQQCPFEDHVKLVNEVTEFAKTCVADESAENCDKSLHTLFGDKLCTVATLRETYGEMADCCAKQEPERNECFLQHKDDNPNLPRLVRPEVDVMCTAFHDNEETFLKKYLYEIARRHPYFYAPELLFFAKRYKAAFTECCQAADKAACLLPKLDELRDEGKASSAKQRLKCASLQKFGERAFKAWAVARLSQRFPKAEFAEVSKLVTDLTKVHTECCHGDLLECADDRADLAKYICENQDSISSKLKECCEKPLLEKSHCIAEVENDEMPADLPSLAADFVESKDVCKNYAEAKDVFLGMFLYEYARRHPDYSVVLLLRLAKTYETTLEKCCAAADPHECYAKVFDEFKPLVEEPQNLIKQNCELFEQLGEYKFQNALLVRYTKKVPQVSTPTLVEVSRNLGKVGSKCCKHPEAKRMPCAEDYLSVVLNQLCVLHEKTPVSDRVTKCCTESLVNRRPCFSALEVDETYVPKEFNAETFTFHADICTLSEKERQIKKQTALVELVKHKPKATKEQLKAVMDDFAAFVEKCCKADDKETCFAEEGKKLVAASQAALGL
Nature of the assay: SPR; nANGPTL4 immobilised; HSA at various concentrations flowed over; plateau values plotted against HSA concentration after subtracting non-specific binding. Conditions: both partners purified. A general note: In SPR one partner is held on a chip, and binding of the other changes the refractive index at the surface.

Assay [2] deals with B3.
The target of assay [3] is T2, Bovine serum albumin (bovine, UniProt P02769 25-607).
T2 construct: serum albumin, bovine; also called BSA; source: bought: Sigma Aldrich (#A7906)
T2 sequence (P02769 25-607): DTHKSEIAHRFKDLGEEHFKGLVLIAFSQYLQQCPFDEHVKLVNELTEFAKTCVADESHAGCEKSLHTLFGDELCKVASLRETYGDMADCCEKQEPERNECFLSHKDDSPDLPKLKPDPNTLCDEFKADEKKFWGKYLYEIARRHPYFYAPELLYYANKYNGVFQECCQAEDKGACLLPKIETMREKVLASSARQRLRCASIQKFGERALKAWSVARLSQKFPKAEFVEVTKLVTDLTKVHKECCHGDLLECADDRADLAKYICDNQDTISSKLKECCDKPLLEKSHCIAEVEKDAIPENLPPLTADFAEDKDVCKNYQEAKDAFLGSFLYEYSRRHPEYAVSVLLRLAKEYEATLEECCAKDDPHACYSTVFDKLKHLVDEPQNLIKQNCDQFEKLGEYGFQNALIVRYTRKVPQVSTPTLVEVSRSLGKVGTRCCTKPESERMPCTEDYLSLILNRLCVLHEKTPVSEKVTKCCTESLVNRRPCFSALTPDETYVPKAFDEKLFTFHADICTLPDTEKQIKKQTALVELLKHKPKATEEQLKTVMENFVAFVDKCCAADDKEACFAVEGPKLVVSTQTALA
Nature of the assay: not stated; equilibrium dissociation constant of the LPL-albumin complex as given in the introduction; experiment not named.

For assay [4], the target named is T2, Bovine serum albumin. Nature of the assay: ITC; 752 μM BSA in the syringe titrated (38 injections) into 1.695 μM bLPL with 10 IU/ml heparin; 20 mM HEPES, 150 mM NaCl, pH 7.4; 25°C; apparent KD of the initial binding phase. Conditions: both partners purified. In general terms: Isothermal titration calorimetry measures the heat released or taken up as one component is titrated into another.

B1: Recombinant N-terminal domain of ANGPTL4 (nANGPTL4^26-184) (domain or fragment, UniProt Q9BY76 26-184, looked up)
chain: GPVQSKSPRFASWDEMNVLAHGLLQLGQGLREHAERTRSQLSALERRLSACGSACQGTEGSTDLPLAPESRVDPEVLHSLQTQLKAQNSRIQQLFHKVAQQQRHLEKQHLRIQHLQSQFGLLDHKHLDHEVAKPARRKRLPEMAQPVDPAHNVSRLHRL
notes: angiopoietin-like protein 4 (ANGPTL4), N-terminal domain, residues 26-184
As for B1, the “inactivation rate constant (ki) of LPL by 100 nM nANGPTL4 during lipolysis of CM/VLDL (ITC), at 10 or 50 mg/ml BSA against 2 mg/ml BSA” value in assay [1] is roughly 1.6 fold. Besides, the Kd with Human serum albumin amounted to 500 ± 51 µM.

B2: Full-length ANGPTL4 (natural protein)
chain: GPVQSKSPRFASWDEMNVLAHGLLQLGQGLREHAERTRSQLSALERRLSACGSACQGTEGSTDLPLAPESRVDPEVLHSLQTQLKAQNSRIQQLFHKVAQQQRHLEKQHLRIQHLQSQFGLLDHKHLDHEVAKPARRKRLPEMAQPVDPAHNVSRLHRLPRDCQELFQVGERQSGLFEIQPQGSPPFLVNCKMTSDGGWTVIQRRHDGSVDFNRPWEAYKAGFGDPHGEFWLGLEKVHSITGDRNSRLAVQLRDWDGNAELLQFSVHLGGEDTAYSLQLTAPVAGQLGATTVPPSGLSVPFSTWDQDHDLRRDKNCAKSLSGGWWFGTCSHSNLNGQYFRSIPQQRQKLKKGIFWKTWRGRYYPLQATTMLIQPMAAEAAS
As for B2, in assay [2], the residual LPL activity (ITC, human plasma) after 130 min of 200 nM LPL with 1 μM ANGPTL4 in the presence of both heparin and BSA was 35%; the residual LPL activity (ITC, human plasma) after 130 min of 200 nM LPL with 1 μM ANGPTL4 in the presence of heparin or BSA alone stood at 55%.

In the case of B3, the Kd is 30 to 70 µM with Bovine serum albumin [3] and 12.6 µM with Bovine serum albumin [4].
